Results reported in patent US20100261872A1, “Factor VIII: remodeling and glycoconjugation of factor VIII” (Neose Technologies, Inc., published 2010).
Values belong to the molecule of their own block, whether it stands above or below them.

Columns and labels:
[1] = target: Fc Cri-IgG1 (Cri-IgG1 treated with a protease so that only the Fc portion remained) (human)
[2] = target: Cri-IgG1 monoclonal antibody (non-recombinant, isolated from a human myeloma) (human)
[3] = target: Ribonuclease B (RNaseB) purified from bovine pancreas (Sigma) (bovine) (UniProt P61823)
Chain of Ribonuclease B (RNaseB) purified from bovine pancreas (Sigma) (bovine) (P61823 27-150): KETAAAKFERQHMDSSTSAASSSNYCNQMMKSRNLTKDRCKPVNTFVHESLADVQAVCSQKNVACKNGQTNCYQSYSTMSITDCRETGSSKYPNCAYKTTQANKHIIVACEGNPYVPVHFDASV

[4] = target: Recombinant human erythropoietin (rhEPO) from the baculovirus/Sf9 expression system (Protein Sciences) (human)
Target sequence in this assay (chain, as listed by the source): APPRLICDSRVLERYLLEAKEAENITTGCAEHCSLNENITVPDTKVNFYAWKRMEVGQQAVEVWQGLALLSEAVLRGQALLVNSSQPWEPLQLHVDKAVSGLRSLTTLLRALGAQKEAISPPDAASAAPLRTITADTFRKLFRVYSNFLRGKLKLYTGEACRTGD

[5] = target: Fc Cri-IgG1 (Cri-IgG1 treated with a protease so that only the Fc portion remained) (human); remark: listed apart in the source
[6] = target: Cri-IgG1 monoclonal antibody (non-recombinant, isolated from a human myeloma) (human); remark: listed apart in the source
[7] = target: Recombinant human erythropoietin (rhEPO) from the baculovirus/Sf9 expression system (Protein Sciences) (human); remark: listed apart in the source
[8] = target: Recombinant human erythropoietin (rhEPO) from the baculovirus/Sf9 expression system (Protein Sciences) (human); remark: listed apart in the source
[9] = target: Fc Cri-IgG1 (Cri-IgG1 treated with a protease so that only the Fc portion remained) (human); remark: listed apart in the source
[10] = target: Cri-IgG1 monoclonal antibody (non-recombinant, isolated from a human myeloma) (human); remark: listed apart in the source
[11] = target: Recombinant human erythropoietin (rhEPO) from the baculovirus/Sf9 expression system (Protein Sciences) (human); remark: listed apart in the source
Target sequence in this assay (chain, as listed by the source): as above

[12] = target: Recombinant human erythropoietin (rhEPO) from the baculovirus/Sf9 expression system (Protein Sciences) (human); remark: listed apart in the source
Target sequence in this assay (chain, as listed by the source): as above

[13] = target: Fc Cri-IgG1 (Cri-IgG1 treated with a protease so that only the Fc portion remained) (human); remark: listed apart in the source
[14] = target: Cri-IgG1 monoclonal antibody (non-recombinant, isolated from a human myeloma) (human); remark: listed apart in the source
[15] = target: Ribonuclease B (RNaseB) purified from bovine pancreas (Sigma) (bovine) (UniProt P61823); remark: listed apart in the source
[16] = target: asialo-α1 Antitrypsin (PPL) (human)
Chain of asialo-α1 Antitrypsin (PPL) (human) (chain, as listed by the source limits assumed): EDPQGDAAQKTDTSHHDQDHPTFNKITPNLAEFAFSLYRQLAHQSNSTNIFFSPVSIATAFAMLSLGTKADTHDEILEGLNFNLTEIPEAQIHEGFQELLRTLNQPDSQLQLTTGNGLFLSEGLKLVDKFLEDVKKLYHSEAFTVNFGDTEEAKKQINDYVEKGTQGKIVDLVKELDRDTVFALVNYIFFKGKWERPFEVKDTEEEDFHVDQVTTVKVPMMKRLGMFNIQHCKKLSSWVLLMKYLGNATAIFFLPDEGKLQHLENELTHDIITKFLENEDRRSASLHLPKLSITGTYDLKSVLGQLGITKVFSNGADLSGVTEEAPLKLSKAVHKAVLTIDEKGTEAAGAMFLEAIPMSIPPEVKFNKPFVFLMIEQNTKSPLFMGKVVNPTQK

[17] = target: ATIII (Antithrombin III) from Genzyme Transgenics (human)
[18] = target: Asialo-fetuin (Sigma)

conversion to the tri-antennary glycan (2AA HPLC) [7]: 92%
Molecule: GnT-V (enzyme)

% peak area of the bisecting (NGA2F) glycoform by CE [9]: 58.4%
% peak area of the bisecting (NGA2F) glycoform by CE [10]: 63.6%
B1: GnT-III (β1,4-mannosyl-UDP-N-acetylglucosaminosyltransferase III) (enzyme)
chain: HFFKTLSYVTFPRELASLSPNLISSFFWNNAPVTPQASPEPGDPDLLRTPLYSHSPLLQPLSPSKATEELHRVDFVLPEDTTEYFVRTKAGGVCFKPGTRMLEKPSPGRTEEKTEVSEGSSARGPARRPMRHVLSSRERLGSRGTRRKWVECVCLPGWHGPSCGVPTVVQYSNLPTKERLVPREVPRRVINAININHEFDLLDVRFHELGDVVDAFVVCDSNFTAYGEPRPLKFREMLTNGTFEYIRHKVLYVFLDHFPPGGRQDGWIADDYLRTFLTQDGVSRLRNLRPDDVFIIDDADEIPARDGVLFLKLYDGWTEPFAFHMRKSLYGFFWKQPGTLEVVSGCTMDMLQAVYGLDGIRLRRRQYYTMPNFRQYENRTGHILVQWSLGSPLHFAGWHCSWCFTPEGIYFKLVSAQNGDFPRWGDYEDKRDLNYIRSLIRTGGWFDGTQQEYPPADPSEHMYAPKYLLKNYDQFRYLLENPYREPKSTVEGGRQNQGSDGRSSAVRGKLDTAEG

conversion of the tri-mannosyl glycoform to 'tri-mannosyl core+2 GlcNAc' (2-AA HPLC) [11]: 100%
B2: GnT-I (β1,2-mannosyl-UDP-N-acetylglucosaminosyltransferase I) (enzyme)
chain: TRPAPGRPPSVSALDGDPASLTREVIRLAQDAEVELERQRGLLQQIGDALSSQRGRVPTAAPPAQPRVPVTPAPAVIPILVIACDRSTVRRCLDKLLHYRPSAELFPIIVSQDCGHEETAQAIASYGSAVTHIRQPDLSSIAVPPDHRKFQGYYKIARHYRWALGQVFRQFRFPAAVVVEDDLEVAPDFFEYFRATYPLLKADPSLWCVSAWNDNGKEQMVDASRPELLYRTDFFPGLGWLLLAELWAELEPKWPKAFWDDWMRRPEQRQGRACIRPEISRTMTFGRKGVSHGQFFDQHLKFIKLNQQFVHFTQLDLSYLQREAYDRDFLARVYGAPQLQVEKVRTNDRKELGEVRVQYTGRDSFKAFAKALGVMDDLKSGVPRAGYRGIVTFQFRGRRVHLAPPLTWEGYDPSWN

completion of the bi-antennary GlcNAc glycan (HPLC, MALDI) [12]: > 99%
% peak area of the bisecting (NGA2F) glycoform by CE [9]: 58.4%
% peak area of the bisecting (NGA2F) glycoform by CE [10]: 63.6%
B3: GnT-II (β1,2-mannosyl-UDP-N-acetylglucosaminosyltransferase II) (enzyme)
chain: RQRKNEALAPPLLDAEPARGAGGRGGDHPSVAVGIRRVSNVSAASLVPAVPQPEADNLTLRYRSLVYQLNFDQTLRNVDKAGTWAPRELVLVVQVHNRPEYLRLLLDSLRKAQGIDNVLVIFSHDFWSTEINQLIAGVNFCPVLQVFFPFSIQLYPNEFPGSDPRDCPRDLPKNAALKLGCINAEYPDSFGHYREAKFSQTKHHWWWKLHFVWERVKILRDYAGLILFLEEDHYLAPDFYHVFKKMWKLKQQECPECDVLSLGTYSASRSFYGMADKVDVKTWKSTEHNMGLALTRNAYQKLIECTDTFCTYDDYNWDWTLQYLTVSCLPKFWKVLVPQIPRIFHAGDCGMHHKKTCRPSTQSAQIESLLNNNKQYMFPETLTISEKFTVVAISPPRKNGGWGDIRDHELCKSYRRLQ

Continued, molecule first:

Molecule: GalT1 (β1,4 galactosyltransferase 1) (from UniProt P08037) (enzyme)
relative amount of the G2 glycoform by CE [1]: 84%
relative amount of the G2 glycoform by CE [2]: 90%
addition of Gal; MALDI-TOF [3]: 98%
released glycans with terminal galactose (HPLC, MALDI) [4]: 97%

Molecule: β-N-acetylhexosaminidase (from Jack Bean, Seikagaku) (enzyme)
relative amount of the M3N2F glycoform by CE [5]: 100%
relative amount of the M3N2F glycoform by CE [6]: 91.4%

Molecule: ST6Gal1 (α2,6-sialyltransferase) (enzyme)
incorporation of radiolabelled sialic acid (% of the radiolabel) [8]: 5.7

B4: ST3Gal III (α2,3-sialyltransferase, EC 2.4.99.6) (enzyme)
chain: KLHLLQWEDSNSLILSLDSAGQTLGTEYDRLGFLLKLDSKLPAELATKYANFSEGACKPGYASAMMTAIFPRFSKPAPMFLDDSFRKWARIREFVPPFGIKGQDNLIKAILSVTKEYRLTPALDSLHCRRCIIVGNGGVLANKSLGSRIDDYDIVIRLNSAPVKGFEKDVGSKTTLRITYPEGAMQRPEQYERDSLFVLAGFKWQDFKWLKYIVYKERVSASDGFWKSVATRVPKEPPEIRILNPYFIQEAAFTLIGLPFNNGLMGRGNIPTLGSVAVTMALDGCDEVAVAGFGYDMNTPNAPLHYYETVRMAAIKESWTHNIQREKEFLRKLVKARVITDLSSGI
relative amount of the S2G2 glycoform by HPLC (peak at 49.4 min) [13]: 61.9%
relative amount of the S2G2 glycoform by HPLC (peak at 49.4 min) [14]: 58.9%
addition of sialic acid; MALDI-TOF [15]: 90%
incorporation of radiolabelled sialic acid [8]: 10.9 moles/mole
% Rxn (completion of sialylation by 14C-NeuAc incorporated, against terminal Gal content) [16]: 100%
% Rxn (completion of sialylation by 14C-NeuAc incorporated, against terminal Gal content) [17]: 117%
% Rxn (completion of sialylation by 14C-NeuAc incorporated, against terminal Gal content) [18]: 116%
